Assay results from patent publication US20130089566A1.

Target: polypeptide B9-23 composed of the ninth to twenty-third amino acid residues of the amino terminal on B chain of human insulin (human)

| T cell proliferation (CFSE staining, flow cytometry) [%] | Substance |
| --- | --- |
| 8.94 | spleen T cells of Balb/c mice of the B9-23 immune group (cells without a defined receptor) |
| 0.08 | spleen T cells of Balb/c mice of the pcDB9-23 and B9-23 coimmune group (cells without a defined receptor) |
| 22.3 | spleen T cells of Balb/c mice of the pcDB9-23 immune group (cells without a defined receptor) |
